Results reported in patent US11572408B2, “Treatment of cancer with a semaphorin-4D antibody in combination with an epigenetic modulating agent” (Vaccinex, Inc., priority 2017, dated 2023).

B1: anti-SEMA4D/MAb 67: anti-SEMA4D monoclonal antibody, VH SEQ ID NO: 9 and VL SEQ ID NO: 10 (antibody, V domains shown)
VH: QVQLQQSGPELVKPGASVKISCKASGYSFSDYYMHWVKQSPENSLEWIGQINPTTGGASYNQKFKGKATLTVDKSSSTAYMQLKSLTSEESAVYYCTRYYYGRHFDVWGQGTTVTVSS
VL: DIVMTQSPASLAVSLGQRATISCKASQSVDYDGDSYMNWYQQKPGQPPKLLIYAASNLESGIPARFSGSGSGTDFTLNIHPVEEEDAATYYCQQSNEDPYTFGGGTKLEIK
modifications: Mab 67 VH; Mab 67 VL

Columns and labels:
Type in all cases: in vivo, Balb/c mice
Colon26 cells [1] = assay: Example 1: Colon26 subcutaneous tumor mouse model, ENT and anti-SEMA4D MAb; conditions: MAb 67 10 mg/kg ip weekly x5 from day 2, ENT 20 mg/kg 3x/week x2 weeks from tumor volume ~300 mm^3, FIG. 2A
Procedure: Colon26 cells (500,000 cells) were implanted subcutaneously into Balb/c mice. […] Kaplan-Meier survival analysis was performed to assess survival function, change in tumor volume was measured to determine tumor growth rates, and frequency of complete tumor regression was evaluated by determining the percentage of tumor-free mice. Percent complete regression (% CR) was also stratified by tumors that exceeded at least 100 mm^3 before regressing. Statistical significance was determined using Mantel Cox Log Rank test for survival, 2-way ANOVA for tumor volume, and Fisher's exact test for CR. Prism reports results as non-significant (ns) at P>0.05, significant (symbolized by “*”) at 0.01<P≤0.05, very significant (“**”) at 0.001<P≤0.01, extremely significant (“***”) at P≤0.001, and highest significance (“****”) at P≤0.0001.

Colon26 cells [2] = assay: Example 2: Colon26 subcutaneous tumor mouse model, ENT and anti-SEMA4D MAb
Procedure: Colon26 cells (500,000 cells) were implanted subcutaneously into Balb/c mice. […] Statistical significance was determined using 2-way ANOVA, Mantel Cox Log Rank test, and Fisher's exact test, respectively. Prism reports results as non-significant (ns) at P>0.05, significant (symbolized by “*”) at 0.01<P≤0.05, very significant (“**”) at 0.001<P≤0.01, and extremely significant (“***”) at P≤0.001.

Colon26 cells [3] = assay: Example 3: Colon26 subcutaneous tumor mouse model, AZA and anti-SEMA4D MAb; conditions: MAb 67 10 mg/kg ip weekly x4 from day 2, AZA 0.8 mg/kg 3x/week x4 doses from tumor volume ~200 mm^3, FIG. 5A
Procedure: Colon26 cells (500,000 cells) were implanted subcutaneously into Balb/c mice.
Kaplan-Meier survival analysis was performed to assess survival function, change in tumor volume was measured to determine tumor growth rates, and frequency of complete tumor regression was evaluated by determining the percentage of tumor-free mice.

Molecule	maximal tumor growth delay (TGD) (Colon26 cells [1]) [%]	frequency of complete tumor regression (Colon26 cells [2]; Fisher's exact test) [%]	maximal tumor growth delay (TGD) (Colon26 cells [2]; MAb 67 10 mg/kg weekly x5 from day 2, ENT 20 mg/kg 3x/week x2 weeks from tumor volume ~250 mm^3, FIG. 3A) [%]	maximal tumor growth delay (TGD) (Colon26 cells [3]) [%]
Nc1ccccc1NC(=O)c1ccc(CNC(=O)OCc2cccnc2)cc1 [ENT, pyridin-3-ylmethyl N-[[4-[(2-aminophenyl)carbamoyl]phenyl]methyl] carbamate, reference compound]	214	25		
B1	107		119	119
